Laboratory results from article PMC5423654.

Substrate: S
Assay: UV-vis quinone reduction, steady-state kinetics
Assay type: biochemical, Staphylococcus aureus
Conditions: pH 8.0; 25.0 °C

B1: S. aureus SQR (sulfide:quinone oxidoreductase) (Staphylococcus aureus subsp. aureus NCTC 8325) (protein)
chain: MNKHYQIVIIGGGTAGVTVASRLLRKNQNLKEKIAIIDPADHHYYQPLWTLVGAGVSSLKSSRKDMESVIPEGANWIKQAVSSFQPENNSVILGDNTVVYYDFLVVAPGLQINWSSIKGLKENIGKNGVCSNYSPDYVNETWNQISNFKQGNAIFTHPNTPIKCGGAPMKIMYLAEDYFRKHKIRSNANVIYATPKDALFDVGKYNKELERIVEERNITVNYNYNLVEIDGDKKVATFEHIKAYDRKTISYDMLHVTPPMGPLDVVKESTLSDSEGWVDVNPTTLQHKSYSNVFALGDASNVPTSKTGAAIRKQAPIVANNLLQVMNNQMLTHHYDGYTSCPIVTGYNRLILAEFDYNKNTKETMPFNQAKERRSMYIFKKDLLPKMYWYGMLKGLI
With B1 the Km was 22 ± 7 µM, the Vmax was 0.41 µmol/min/mg and the kcat/Km was 14100 ± 4600 M⁻¹ s⁻¹.
